# Numbering of substitutions follows the chain as printed. No end group written: not given here.
# B1: Ig1: Recombinant Ig1 domain of rat NCAM produced in Pichia pastoris (protein)
# chain: LQVDIVPSQGEISVGESKFFLCQVAGDAKDKDISWFSPNGEKLSPNQQRISVVWNDDDSSTLTIYNANIDDAGIYKCVVTAEDGTQSEATVNVKIFQ
# B2: D3d, tetrameric dendrimer of the D3 peptide (peptide)
# peptide: AKKERQRKDTQ
# modifications: also: tetrameric dendrimer: four monomers coupled to a backbone of three lysines, synthesised on Rink amide linker
# notes: Immobilised on a CM5 sensor chip in the BIAlite experiment; also called dendrimer peptide D3d
# B3: D4d, tetrameric dendrimer of the D4 peptide (peptide)
# peptide: ARALNWGAKPK
# modifications: also: tetrameric dendrimer: four monomers coupled to a backbone of three lysines, synthesised on Rink amide linker
# notes: Immobilised on a CM5 sensor chip in the BIAlite experiment; also called dendrimer peptide D4d
# B4: C3d, tetrameric dendrimer of the C3 peptide (peptide)
# peptide: ASKKPKRNIKA
# modifications: also: tetrameric dendrimer: four monomers coupled to a backbone of three lysines, synthesised on Rink amide linker
# notes: Immobilised on a CM5 sensor chip in the BIAlite experiment; also called dendrimer peptide C3d
# B5: NCAM(20-208) first mutant: Glu-30, Glu-35 and Lys-37 substituted with Ala (receptor, UniProt P13596 20-208, looked up)
# chain: LQVDIVPSQGAISVGASAFFLCQVAGDAKDKDISWFSPNGEKLSPNQQRISVVWNDDDSSTLTIYNANIDDAGIYKCVVTAEDGTQSEATVNVKIFQKLMFKNAPTPQEFKEGEDAVIVCDVVSSLPPTIIWKHKGRDVILKKDVRFIVLSNNYLQIRGIKKTDEGTYRCEGRILARGEINFKDIQVIV
# B6: NCAM(20-208) third mutant: Glu-30, Glu-35, Lys-37, Arg-192, Arg-196 and Glu-198 substituted with Ala (receptor, UniProt P13596 20-208, looked up)
# chain: B5 chain with R173A, R177A, E179A
# B7: NCAM(20-208) second mutant: Arg-192, Arg-196 and Glu-198 substituted with Ala (receptor, UniProt P13596 20-208, looked up)
# chain: B5 chain with A11E, A16E, A18K, R173A, R177A, E179A
# Columns and labels:
# Hippocampal cells = test: Aggregate cell cultures of hippocampal cells (aggregates counted after 24 h); type: cell-based, rat; conditions: ligand present during the aggregation of cells; quantified 24 h after seeding
# Method: A variety of suitable fragments and variants of NCAM has been discussed above. To be able to identify candidate ligands capable of stimulating NCAM function, where the NCAM function means the function of the NCAM molecule, the inventors have established a simple cell culture system (aggregate cell cultures) that permits a quantitative evaluation of the effect of various ligands. Hippocampal cells are provided from rat embryos. The cells are grown in a defined medium and dissociated cells are seeded in microtiter plates. After 24 h, the, amount of aggregates are counted. Compounds to be tested are added to the cell suspension immediately before seeding of the cells in micro-wells. When NCAM Ig1 binding ligands are present during the aggregation of cells, smaller, but more numerous cell aggregates are seen when quantified 24 h after seeding of the cells. The inhibiting effect of the ligands results in a blockage of the formation of large aggregates from many small aggregates as the adhesion, properties of NCAM are blocked. Thus, small but more numerous cell aggregates are seen in the presence of active ligands.
# [1] = target: T1, recombinant NCAM Ig1 domain produced in Pichia pastoris (Ig1 PP) (rat, UniProt P13596 20-116, limits assumed); test: one-bead one-peptide library stained with biotinylated NCAM Ig1
# T1 construct: domain: Ig1; unlabelled analyte in the BIAlite experiment; also called NCAM Ig1-PP
# Method: The synthesis of the resin-bound one-bead one-peptide library was performed using the portioning, mix procedure (Furka et al., 1991). Polyethylene syringes served as reaction vessels throughout the synthesis and the final TFA-deprotection. TentaGel resin (Rapp Polymere, Tübingen, Germany) was divided into 18 aliquots and the protein L-amino acids except cysteine and histidine were used. Side-chains were protected with the following protecting groups: Asp(tBu), Glu(tBu), Tyr(tBu), Ser(tBu), Thr(tBu), Asn(trt), Gln(trt), Lys(Boc), Trp(Boc), Arg(pmc). Fmoc-protected amino acids (5 eq; Milligen or Novabiochem) were coupled overnight using 5eq DIC and 5eq HOBt. Removal of the Fmoc group was accomplished with 25% piperidine in DMF for 20 min. The side chain protecting groups were removed with […], 5% anisole, 5% H₂O, 5% EDT, 2.5% thioanisole at mom temperature for 2.5 h followed by washing with tetrahydrofuran and 1% HOAc and the resin was subsequently lyophilised. Screenings were done by incubating 2 ml resin (equivalent to ca. 10⁶ beads) with biotinylated receptor in Tris/HCl buffer (Tris/HCl 0.025 M, pH 7.2, 0.25 M NaCl, 0.1 % (w/v) Tween 20) containing 0.1% Gelatin (Sigma) for 60 min. Subsequently the resin was washed in Tris/HCl buffer and incubated with avidin-alkaline phosphatase (diluted 1:20000) for 30 min. The substrates BCIP/NBT (Sigma) were added as described by Lam et al. (1992) and stained beads were removed for micro sequencing. The library was screened with the receptor NCAM Ig1-PP (10 mg/ml).
# [2] = target: T1, recombinant NCAM Ig1 domain produced in …; test: SPR (BIAlite), dendrimer peptide immobilised on CM5 chip, Ig1 in solution
# Method: Real-time biomolecular interaction analysis was performed using a BIAlite instrument (Pharmacia Biosensor AB, Sweden). All experiments were performed at 25° C. using Hepes buffered saline (HBS: 10 mM Hepes pH 7.4, 150 mM NaCl, 3.4 mM EDTA, 0.005% v/v Surfactant P20 (Pharmacia Biosensor, Sweden) as running buffer. The flow rate was […]. Dendrimer peptides C3d, D3d and D4d (four peptide-monomers coupled to a backbone consisting of three lysines) were immobilised on a sensor chip CM5 (Pharmacia Biosensor AB, Sweden) using the following procedure: the chip was activated by […] 0.05 M N-hydroxysuccinimide, 0.2 M N-ethyl-N′-(dimethylaminopropyl)carbodiimide; peptides were immobilised using […] peptide solution in HBS at a concentration of 60 μg/ml; finally the chip was blocked by 35 μl 1 M ethanolamine hydrochloride pH 8.5. Binding of Ig1 to dendrimer peptides: […] of Ig1 or Ig1I at the indicated concentrations were applied. The chip was regenerated by two […] pulses of 5 mM NaOH. Two independent experiments were performed. The results confirmed that C3d, D3d and D4d bind to the NCAM Ig1 domain.
# [3] = target: the molecule itself; test: gel filtration chromatography, homophilic dimer formation
Molecule,binding result [1],other results
AKKERQRKDTQ (listed as Homo sapiens) [D3],–,inhibition of aggregation of hippocampal cells (Hippocampal cells): inhibited aggregation
ARALNWGAKPK (listed as Homo sapiens) [D4],–,inhibition of aggregation of hippocampal cells (Hippocampal cells): inhibited aggregation
GEISVGESKFFL (listed as Homo sapiens) [Ig1-p],–,inhibition of aggregation of hippocampal cells (Hippocampal cells): inhibited aggregation
GRILARGEINFK (listed as Homo sapiens) [Ig2-p],–,inhibition of aggregation of hippocampal cells (Hippocampal cells): inhibited aggregation
AKKERQRKDTQ [D3 peptide (SEQ ID NO:2)],binds,–
ASKKPKRNIKA [C3 peptide (SEQ ID NO:1)],binds,–
AYYLIVRVNRI [SEQ ID NO 8],binds,–
ARKSRDMTAIK [SEQ ID NO 22],binds,–
AKRNGPLINRI [SEQ ID NO 10],binds,–
ARKTRERKSKD [SEQ ID NO 14],binds,–
B1,–,inhibition of aggregation of hippocampal cells (Hippocampal cells): inhibited aggregation
AGDYNPDLDR [SEQ ID NO 13],binds,–
AKRSVQKLDGQ [SEQ ID NO 11],binds,–
APKLDRMLTKK [SEQ ID NO 16],binds,–
ARQKTMKPRRS [SEQ ID NO 12],binds,–
AKYVLIPIRIS [SEQ ID NO 5],binds,–

Molecule,binding result [1],other results
B2,–,binding result [2]: binds
AKSRKGNSSLM [SEQ ID NO 21],binds,–
B3,–,binding result [2]: binds
ATNKKTGRRPR [SEQ ID NO 9],binds,–
AEGGKKKKMRA [SEQ ID NO 19],binds,–
ASTKRSMQGI [SEQ ID NO 6],binds,–
B4,–,binding result [2]: binds
B5,–,binding result [3]: no binding
B6,–,binding result [3]: no binding
B7,–,binding result [3]: no binding
AKKKEQKQRNA [SEQ ID NO 20],binds,–
ARALNWGAKPK [D4 peptide (SEQ ID NO:3)],binds,–
AQMGRQSIDRN [SEQ ID NO 18],binds,–
ASQAKRRKGPR [SEQ ID NO 15],binds,–
AKKEKPNKPND [SEQ ID NO 17],binds,–
AGSAVKLKKKA [SEQ ID NO 4],binds,–
